B1: Azoarcus group I ribozyme (parent)
chain: GUGCCUUGCGCCGGGAAACCACGCAAGGGAUGGUGUCAAAUUCGGCGAAACCUAAGCGCCCGCCCGGGCGUAUGGCAACGCCGAGCCAAGCUUCGGCGCCUGCGCCGAUGAAGGUGUAGAGACUAGACGGCACCCACCUAAGGCAAACGCUAUGGUGAAGGCAUAGUCCAGGGAGUGGCGAAAGUCACACAAACCGG

Variants of: B1
Assay: reverse-splicing fitness (ratio to wild type); higher = more active; in vitro selection; Mg2+ level not given
Method in brief: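 An in vitro group I ribozyme library with randomized positions was T7-transcribed and gel-purified. In triplicate, 10 pmol RNA in EPPS pH 7.5 was reacted with 50 pmoles of a 30-nt RNA substrate for 1 h at 37 °C across several added MgCl2 levels (1–48 mM), then stopped with EDTA. Products were reverse transcribed from a substrate-complementary primer, PCR-amplified and sequenced (HiSeq 4000). Fitness is a variant's read proportion after selection over that before, normalised to wild type.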

Variant | reverse-splicing fitness
A111C A120G C150U C169G U176C | 0.0349
A111C A120G C150U C169G U176G | 0.00581
A111C A120G C169A | 0.131
A111C A120G C169U | 0.17
A111C A120G C169G | 0.22
A111C A120U A145U C150U C169A U176C | 0.00252
A111C A120U A145U C150U C169A U176G | 0.00217
A111C A120U A145U C150U C169A U176A | 0.00293
A111C A120U A145G C169A U176A | 0.00375
A111C A120U A145G C169A U176C | 0.00408
A111C A120U A145G C169A U176G | 0.00216
A111C A120U A145U C150G C169A U176C | 0.0035
A111C A120U A145U C150G C169A U176A | 0.00343
A111C A120U A145U C150G C169A U176G | 0.00296
A111C A120U A145G C150A C169A U176C | 0.00438
A111C A120U A145G C150A C169A U176G | 0.00318
A111C A120U A145G C150A C169A U176A | 0.0071
A111C A120U A145C C169A | 0.00529
A111C A120U A145C C169U | 0.0701
A111C A120U A145C C169G | 0.0517
A111C A120U A145G C150U C169A | 0.00795

Variant | reverse-splicing fitness
A111C A120U A145G C150U C169U | 0.065
A111C A120U A145G C150U C169G | 0.0471
A111C A120U C150A C169U U176G | 0.00274
A111C A120U C150A C169U U176C | 0.0062
A111C A120U C150A C169U U176A | 0.00902
A111C A120U A145U C150U C169G U176G | 0.00261
A111C A120U A145U C150U C169G U176C | 0.00885
A111C A120U A145U C150U C169G U176A | 0.00509
A111C A120G C169G U176C | 0.0444
A111C A120G C169G U176G | 0.00449
A111C A120G C169G U176A | 0.0304
A111C A120U A145U C150U C169U U176C | 0.0142
A111C A120U A145U C150U C169U U176G | 0.00224
A111C A120U A145U C150U C169U U176A | 0.00859
A111C A120U C150A C169G U176A | 0.00448
A111C A120U C150A C169G U176C | 0.00434
A111C A120U C150A C169G U176G | 0.00245
A111C A120U A145C U176C | 0.17
A111C A120U A145C U176A | 0.244
A111C A120U A145C U176G | 0.0856
A111C A145C C150G C169A U176G | 0.00574

Variant | reverse-splicing fitness
A111C A145C C150G C169A U176C | 0.00833
A111C A145C C150G C169A U176A | 0.00774
A111C A120U A145G C150A C169G | 0.0103
A111C A120U A145G C150A C169A | 0.0061
A111C A120U A145G C150A C169U | 0.0133
A111C A120U A145C C150U C169A U176A | 0.00274
A111C A120U A145C C150U C169A U176C | 0.00249
A111C A120U A145C C150U C169A U176G | 0.00188
A111C A120G C150U C169U U176C | 0.0371
A111C A120G C150U C169U U176A | 0.0337
A111C A120G C150U C169U U176G | 0.00549
A111C A120U A145U C169U | 0.0751
A111C A120U A145U C169G | 0.0574
A111C A120U A145U C169A | 0.00546
A111C A145C C150G C169G | 0.0102
A111C A145C C150G C169A | 0.00983
A111C A145C C150G C169U | 0.018
A111C A145C C150A C169A U176A | 0.0117
A111C A145C C150A C169A U176C | 0.00898
A111C A145C C150A C169A U176G | 0.00714
A111C A120U | 0.659

Variant | reverse-splicing fitness
A111C A120U A145U C150U | 0.491
A111C A120U A145U C150G | 0.0737
A111C A120U A145U C150A | 0.0636
A111C A120U A145G C150A C169G U176A | 0.00653
A111C A120U A145G C150A C169G U176C | 0.00682
A111C A120U A145G C150A C169G U176G | 0.00255
A111C A120U A145G C169G U176A | 0.0064
A111C A120U A145G C169G U176C | 0.0098
A111C A120U A145G C169G U176G | 0.00174
A111C A120U A145U U176A | 0.221
A111C A120U A145U U176C | 0.271
A111C A120U A145U U176G | 0.0748
A111C A120U A145U C150A C169G | 0.00604
A111C A120U A145U C150A C169A | 0.00263
A111C A120U A145U C150A C169U | 0.00653
A111C A120U A145U C150U U176A | 0.182
A111C A120U A145U C150U U176C | 0.215
A111C A120U A145U C150U U176G | 0.0348
A111C A120U C169A | 0.00479
A111C A120U C169G | 0.0632
A111C A120U C169U | 0.0792
